According to the supplement of paper PMC9112550, “Optimization of the antimicrobial peptide Bac7 by deep mutational scanning” (BMC Biology, 2022):

The sequences below were run on Escherichia coli TOP10 (assay: shrunken log2 fold change of peptide-encoding DNA abundance (4.5 h post-induction vs induction); higher = less antimicrobial activity (less host growth inhibition)). Conditions: time post-induction: 4.5 h; library: site-saturation at positions 5, 18, 19, 20.
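Note: peptides expressed intracellularly from a pBAD plasmid library in pooled LB shake-flask culture, induced with 0.3% L-arabinose, DNA abundance read by NGS, three biological replicates, DESeq2 with apeglm shrinkage.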

Sequence | shrunken log2 fold change
RRIRKRPPRLPRPRPRPNLQPRP | 0.279
RRIRPRPPRLPRPRPRPSLTPRP | -0.22
RRIRRRPPRLPRPRPRPKVIPRP | -0.256
RRIRWRPPRLPRPRPRPHWQPRP | -0.00204
RRIRWRPPRLPRPRPRPVHLPRP | -0.00868
RRIRLRPPRLPRPRPRPFNQPRP | -0.122
RRIRYRPPRLPRPRPRPEQDPRP | -0.0203
RRIRCRPPRLPRPRPRPVGVPRP | 0.299
RRIRFRPPRLPRPRPRPYGNPRP | -0.527
RRIRVRPPRLPRPRPRPTHHPRP | 0.586
RRIRERPPRLPRPRPRPILCPRP | -0.0244
RRIRFRPPRLPRPRPRPFHKPRP | -1.02
RRIRGRPPRLPRPRPRPKSFPRP | 0.0944
RRIRGRPPRLPRPRPRPPFEPRP | 0.691
RRIRHRPPRLPRPRPRPCVRPRP | -0.504
RRIRRRPPRLPRPRPRPSCFPRP | -0.0896
RRIRVRPPRLPRPRPRPGSAPRP | 0.179
RRIRGRPPRLPRPRPRPNMGPRP | 0.269
RRIRFRPPRLPRPRPRPRIPPRP | -0.0955
RRIRSRPPRLPRPRPRPTPRPRP | 0.843
RRIRWRPPRLPRPRPRPRTYPRP | -0.331
RRIRLRPPRLPRPRPRPPMGPRP | 0.194
RRIRKRPPRLPRPRPRPGHHPRP | 0.228
RRIRARPPRLPRPRPRPLHCPRP | 0.617
RRIRYRPPRLPRPRPRPCRTPRP | -0.651

Sequence | shrunken log2 fold change
RRIRRRPPRLPRPRPRPIIQPRP | -0.342
RRIRRRPPRLPRPRPRPQEYPRP | -0.0725
RRIRQRPPRLPRPRPRPWPSPRP | 0.168
RRIRIRPPRLPRPRPRPMTPPRP | 0.0425
RRIRLRPPRLPRPRPRPDDEPRP | -0.0861
RRIRYRPPRLPRPRPRPKWYPRP | -0.884
RRIRPRPPRLPRPRPRPLGCPRP | 0.376
RRIRTRPPRLPRPRPRPTVFPRP | -0.14
RRIRCRPPRLPRPRPRPHGWPRP | 0.267
RRIRYRPPRLPRPRPRPFMKPRP | -0.272
RRIRCRPPRLPRPRPRPFYCPRP | -0.645
RRIRWRPPRLPRPRPRPSWFPRP | -0.0343
RRIRQRPPRLPRPRPRPMKDPRP | -0.447
RRIRIRPPRLPRPRPRPCIHPRP | -0.488
RRIRDRPPRLPRPRPRPKRNPRP | 0.136
RRIRVRPPRLPRPRPRPLRGPRP | 0.764
RRIRKRPPRLPRPRPRPRSHPRP | 0.38
RRIRARPPRLPRPRPRPFPGPRP | -0.116
RRIRPRPPRLPRPRPRPRPSPRP | 0.333
RRIRFRPPRLPRPRPRPMMGPRP | -0.0671
RRIRFRPPRLPRPRPRPMKMPRP | -0.0224
RRIRARPPRLPRPRPRPWHFPRP | 0.24
RRIRQRPPRLPRPRPRPGNFPRP | 0.0262
RRIRGRPPRLPRPRPRPDAQPRP | 2.38
RRIRLRPPRLPRPRPRPKVGPRP | 0.109

Sequence | shrunken log2 fold change
RRIRCRPPRLPRPRPRPFIHPRP | -1.43
RRIRRRPPRLPRPRPRPETLPRP | 0.0675
RRIRDRPPRLPRPRPRPMPPPRP | 0.361
RRIRVRPPRLPRPRPRPTEFPRP | -0.143
RRIRKRPPRLPRPRPRPYRMPRP | -0.329
RRIRGRPPRLPRPRPRPCLPPRP | -0.0995
RRIRPRPPRLPRPRPRPYSCPRP | -0.183
RRIRQRPPRLPRPRPRPLLHPRP | -0.182
RRIRKRPPRLPRPRPRPNCVPRP | 0.109
RRIRVRPPRLPRPRPRPRCDPRP | -0.0186
RRIRYRPPRLPRPRPRPHCPPRP | -0.0417
RRIRCRPPRLPRPRPRPIAVPRP | -0.0152
RRIRSRPPRLPRPRPRPDWAPRP | 0.236
RRIRLRPPRLPRPRPRPASVPRP | -0.0571
RRIRQRPPRLPRPRPRPTSEPRP | 0.015
RRIRTRPPRLPRPRPRPWQQPRP | -0.0121
RRIRQRPPRLPRPRPRPMAAPRP | 0.127
RRIRTRPPRLPRPRPRPRVMPRP | 0.0867
RRIRSRPPRLPRPRPRPHCYPRP | -0.302
RRIRLRPPRLPRPRPRPYIPPRP | -0.669
RRIRFRPPRLPRPRPRPYTKPRP | -0.573
RRIRWRPPRLPRPRPRPGAKPRP | 0.21
RRIRLRPPRLPRPRPRPEYVPRP | 0.102
RRIRGRPPRLPRPRPRPAFAPRP | 0.89
RRIRPRPPRLPRPRPRPTTMPRP | -0.126

Sequence | shrunken log2 fold change
RRIRERPPRLPRPRPRPNCGPRP | -0.26
RRIRVRPPRLPRPRPRPRRKPRP | 0.0637
RRIRYRPPRLPRPRPRPPHWPRP | 0.203
RRIRSRPPRLPRPRPRPWWHPRP | -0.166
RRIRHRPPRLPRPRPRPGFEPRP | 0.373
RRIRYRPPRLPRPRPRPTYLPRP | -0.824
RRIRLRPPRLPRPRPRPWMDPRP | 0.0138
RRIRHRPPRLPRPRPRPYMMPRP | -3.2
RRIRIRPPRLPRPRPRPGNQPRP | -0.839
RRIRRRPPRLPRPRPRPIDHPRP | -0.12
RRIRWRPPRLPRPRPRPQLHPRP | 0.123
RRIRKRPPRLPRPRPRPTLMPRP | 0.758
RRIRCRPPRLPRPRPRPIDDPRP | -0.0196
RRIRWRPPRLPRPRPRPMIPPRP | 0.0901
RRIRHRPPRLPRPRPRPYHSPRP | -0.0215
RRIRYRPPRLPRPRPRPCPCPRP | 0.0185
RRIRMRPPRLPRPRPRPRQYPRP | -0.0556
RRIRKRPPRLPRPRPRPRCVPRP | 0.276
RRIRFRPPRLPRPRPRPSLEPRP | -0.0776
RRIRTRPPRLPRPRPRPCIWPRP | -0.0258
RRIRIRPPRLPRPRPRPKCVPRP | -0.328
RRIRMRPPRLPRPRPRPPPDPRP | 1.9
RRIRQRPPRLPRPRPRPEKFPRP | -0.029
RRIRIRPPRLPRPRPRPNEVPRP | -0.346
RRIRQRPPRLPRPRPRPMWTPRP | 0.158

Sequence | shrunken log2 fold change
RRIRKRPPRLPRPRPRPNRIPRP | 0.0866
RRIRQRPPRLPRPRPRPKADPRP | 0.143
RRIRARPPRLPRPRPRPFPIPRP | 0.264
RRIRGRPPRLPRPRPRPREHPRP | 0.783
RRIRFRPPRLPRPRPRPQMFPRP | -0.103
RRIRPRPPRLPRPRPRPEPFPRP | 0.454
RRIRYRPPRLPRPRPRPSTMPRP | -0.434
RRIRARPPRLPRPRPRPFWNPRP | 0.127
RRIRNRPPRLPRPRPRPQPLPRP | -0.102
RRIRHRPPRLPRPRPRPYYAPRP | -0.417
RRIRSRPPRLPRPRPRPTKGPRP | -0.0226
RRIRYRPPRLPRPRPRPSQTPRP | -0.0989
RRIRRRPPRLPRPRPRPPLVPRP | 1.23
RRIRWRPPRLPRPRPRPYHCPRP | -0.276
RRIRSRPPRLPRPRPRPVTHPRP | -0.152
RRIRFRPPRLPRPRPRPDNTPRP | -0.491
RRIRDRPPRLPRPRPRPIDTPRP | -0.3
RRIRGRPPRLPRPRPRPNIRPRP | -0.135
RRIRPRPPRLPRPRPRPTNPPRP | 0.174
RRIRPRPPRLPRPRPRPQATPRP | -0.2
RRIRYRPPRLPRPRPRPVPEPRP | -0.294
RRIRARPPRLPRPRPRPSDFPRP | 0.0983
RRIRPRPPRLPRPRPRPSGEPRP | 0.126
RRIRKRPPRLPRPRPRPHTVPRP | -0.407
RRIRHRPPRLPRPRPRPGFLPRP | -0.0294

Sequence | shrunken log2 fold change
RRIRWRPPRLPRPRPRPSQNPRP | 0.236
RRIRARPPRLPRPRPRPRDHPRP | 0.158
RRIRRRPPRLPRPRPRPPLWPRP | 0.883
RRIRPRPPRLPRPRPRPVSQPRP | -0.0764
RRIRPRPPRLPRPRPRPKQGPRP | 0.0197
RRIRWRPPRLPRPRPRPLKVPRP | -0.496
RRIRYRPPRLPRPRPRPNDCPRP | -1.04
RRIRLRPPRLPRPRPRPRSEPRP | 0.235
RRIRERPPRLPRPRPRPHWSPRP | -0.71
RRIRGRPPRLPRPRPRPNMWPRP | 0.274
RRIRLRPPRLPRPRPRPHADPRP | -0.299
RRIRERPPRLPRPRPRPDANPRP | -0.103
RRIRNRPPRLPRPRPRPCSVPRP | 0.0192
RRIRARPPRLPRPRPRPCYFPRP | -0.324
RRIRGRPPRLPRPRPRPANIPRP | -0.0276
RRIRWRPPRLPRPRPRPHPIPRP | 0.062
RRIRCRPPRLPRPRPRPPVRPRP | 0.519
RRIRMRPPRLPRPRPRPANRPRP | 0.21
RRIRLRPPRLPRPRPRPVNPPRP | 0.0818
RRIRWRPPRLPRPRPRPCFRPRP | 0.021
RRIRCRPPRLPRPRPRPRAPPRP | 0.87
RRIRWRPPRLPRPRPRPLLFPRP | -0.0366
RRIRYRPPRLPRPRPRPTGTPRP | -0.172
RRIRRRPPRLPRPRPRPIPNPRP | 0.349
RRIRARPPRLPRPRPRPLSEPRP | 0.172
